Article doi:10.1101/2021.12.02.470928

Assays:
Experiment in all cases: BLI
[1] = biological target: biotinylated MYC(1-88ΔMB0) (UniProt P01106)
[2] = biological target: biotinylated MYC(1-88 Y24A)
[3] = biological target: biotinyl-MB0 peptide (MYC 16-33) (UniProt P01106)
[4] = biological target: biotinylated MYC(1-88 F23A)
[5] = biological target: biotinylated MYC(1-88 Y22A)
[6] = biological target: biotinylated MYC(1-88 P21A)

Kd [1]: > 100 µM
fold weakening of KD against wild-type MYC(1-88) [2]: > 5 fold
Kd [3]: 9.4 µM
fold weakening of KD against wild-type MYC(1-88) [4]: > 5 fold
fold weakening of KD against wild-type MYC(1-88) [5]: > 5 fold
fold weakening of KD against wild-type MYC(1-88) [6]: > 5 fold
B1: PNUTS(1-148), PNUTS amino-terminal domain (PAD) (domain or fragment)
chain: MGSGPIDPKELLKGLDSFLNRDGEVKSVDGISKIFSLMKEARKMVSRCTYLNILLQTRSPEILVKFIDVGGYKLLNNWLTYSKTTNNIPLLQQILLTLQHLPLTVDHLKQNNTAKLVKQLSKSSEDEELRKLASVLVSDWMAVIRSQS
